{
  "source": "patent US20220227830A1",
  "about": "“QD DOSING OF GIP RECEPTOR AGONIST PEPTIDE COMPOUNDS AND USES THEREOF” (Takeda Pharmaceutical Company Limited, priority 2020, published 2022)",
  "binders": {"B1": {"name": "Compound 160 (peptide)", "peptide": "YXEGTFISDYSIAXDRXAQXNFVNWLLAQSG", "modifications": "N-terminal Me (Me-Tyr1); Aib at 2, 17, 20; Km = Lys(R) at 14, linker printed GS (read as G5 = GGGGG), lipid C15DA (C15 diacid); C-terminal OH"}, "B2": {"name": "Compound 177 (peptide)", "peptide": "B1 peptide with R16S, N21D, S30K", "modifications": "N-terminal Me (Me-Tyr1); Aib at 2, 17, 20; Km = Lys(R) at 14, linker printed GS (read as G5 = GGGGG), lipid C15DA (C15 diacid); C-terminal OH"}, "B3": {"name": "Compound 168 (peptide)", "peptide": "B1 peptide with X14L, N21D", "modifications": "N-terminal Me (Me-Tyr1); Aib at 2, 20; Km = Lys(R) at 17, linker printed GS (read as G5 = GGGGG), lipid C15DA (C15 diacid); C-terminal OH"}, "B4": {"name": "Compound 172 (peptide)", "peptide": "B1 peptide with N21D", "modifications": "N-terminal Me (Me-Tyr1); Aib at 2, 17, 20; Km = Lys(R) at 14, linker printed GS (read as G5 = GGGGG), lipid C15DA (C15 diacid); C-terminal OH"}, "B5": {"name": "Compound 157 (peptide)", "peptide": "YXEGTFISDYSIAXDRXAQXDFVNWLLAQSPSSGAPG", "modifications": "N-terminal Me (Me-Tyr1); Aib at 2, 17, 20; Km = Lys(R) at 14, linker printed GS (read as G5 = GGGGG), lipid C15DA (C15 diacid); C-terminal OH"}, "B6": {"name": "Compound 191 (peptide)", "peptide": "YXEGTFTSDYSIYLDKQAAXEFVNWLLAGGPSSGAPPPSX", "modifications": "not fully specified; no N-terminal group printed; Aib at 2, 20; Km = Lys(R) at 40, linker not given, lipid C16; C-terminal NH2"}},
  "note": "Where a chain is given by its changes, count along the chain named. Starred links: 1 amine or outer side, 2 acyl side, 3 side chain; linkers in the order of their positions; H or OH if unused. Non-standard residues stand in square brackets, D forms with d. Groups on a side chain read outwards from the residue. *: point of attachment. C15 diacid = O=C(O)CCCCCCCCCCCCCC(=O)*; γGlu = O=C(O)[C@H](CCC(=O)[*:2])N[*:1]; AEEA = NCCOCCOCC(=O)O; Aib = CC(C)(N)C(=O)O",
  "data": [
    {"target": "full-length human GLP-1R with an N-terminal FLAG tag, overexpressed on HEK-293T cells (human, UniProt P43220 24-463)", "test": "cell-based or functional assay", "units": {"Human GLP1R cAMP HEK293T EC50": "nM"}, "values": [
      {"binder": "Me-Y[Aib]EGTFISDYSIALDR[Aib]K([AEEA-AEEA-γGlu-γGlu-C15 diacid])Q[Aib]NFVNWLLAQSG-OH", "note": "[Compound 161]", "Human GLP1R cAMP HEK293T EC50": "> 1000"},
      {"binder": "Me-Y[Aib]EGTFISDYSIALDR[Aib]KQ[Aib]DFVNWLLAQSG-OH (not fully specified (residues 1, 18))", "note": "[Compound 170]", "Human GLP1R cAMP HEK293T EC50": "> 1000"},
      {"binder": "Me-Y[Aib]EGTFISDYSIALDR[Aib]K([AEEA-AEEA-γGlu-γGlu-C15 diacid])Q[Aib]DFVNWLLAQRG-OH", "note": "[Compound 162]", "Human GLP1R cAMP HEK293T EC50": 513},
      {"binder": "Me-Y[Aib]EGTFISDYSIALDR[Aib]K([AEEA-AEEA-γGlu-γGlu-C15 diacid])Q[Aib]DFVNWLLAQSG-OH", "note": "[Compound 163]", "Human GLP1R cAMP HEK293T EC50": "> 1000"},
      {"binder": "Me-Y[Aib]EGTFISDYSIAK([Gly-Gly-Gly-Gly-γGlu-C15 diacid])DR[Aib]AQ[Aib]DFVNWLLAQKG-OH", "note": "[Compound 180]", "Human GLP1R cAMP HEK293T EC50": "> 1000"},
      {"binder": "Me-Y[Aib]EGTFISDYSIAKDR[Aib]AQ[Aib]DFVNWLLAQRG-OH (not fully specified (residues 1, 14))", "note": "[Compound 173]", "Human GLP1R cAMP HEK293T EC50": "> 1000"},
      {"binder": "B1", "Human GLP1R cAMP HEK293T EC50": 24},
      {"binder": "B2", "Human GLP1R cAMP HEK293T EC50": 1000},
      {"binder": "B3", "Human GLP1R cAMP HEK293T EC50": 17.4},
      {"binder": "B4", "Human GLP1R cAMP HEK293T EC50": 64.6},
      {"binder": "Me-Y[Aib]EGTFISDYSI[Aib]LDR[Aib]AQ[Aib]K([AEEA-AEEA-γGlu-γGlu-C15 diacid])FVNWLLAQKG-OH", "note": "[Compound 175]", "Human GLP1R cAMP HEK293T EC50": 44.7},
      {"binder": "B5", "Human GLP1R cAMP HEK293T EC50": 347}
    ]},
    {"target": "T1, full-length human GIPR with an N-terminal FLAG tag, overexpressed on HEK-293T cells (human, UniProt P48546 22-466)", "T1 sequence (looked up)": "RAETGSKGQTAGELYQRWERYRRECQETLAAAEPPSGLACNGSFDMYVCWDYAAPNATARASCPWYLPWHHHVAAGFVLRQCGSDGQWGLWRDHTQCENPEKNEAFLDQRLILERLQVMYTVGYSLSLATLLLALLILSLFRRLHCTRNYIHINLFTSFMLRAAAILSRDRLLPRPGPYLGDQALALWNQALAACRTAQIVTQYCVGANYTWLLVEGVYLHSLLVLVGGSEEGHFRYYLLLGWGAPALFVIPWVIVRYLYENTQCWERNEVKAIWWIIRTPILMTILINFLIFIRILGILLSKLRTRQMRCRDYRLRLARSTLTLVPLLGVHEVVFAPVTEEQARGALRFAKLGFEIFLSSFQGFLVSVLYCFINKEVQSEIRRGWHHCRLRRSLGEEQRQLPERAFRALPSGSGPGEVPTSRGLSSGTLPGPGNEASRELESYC", "test": "cell-based or functional assay", "units": {"Human GIPR cAMP, HEK293T EC50": "nM"}, "values": [
      {"binder": "Me-Y[Aib]EGTFISDYSI[Aib]LDR[Aib]AQ[Aib]K([2OEG-γGlu-γGlu-C15 diacid])FVNWLLAQRG-OH", "note": "[Compound 207]", "Human GIPR cAMP, HEK293T EC50": 0.0004},
      {"binder": "Me-Y[Aib]EGTFISDYSIALDR[Aib]K([AEEA-AEEA-γGlu-γGlu-C15 diacid])Q[Aib]NFVNWLLAQSG-OH", "note": "[Compound 161]", "Human GIPR cAMP, HEK293T EC50": 0.0003},
      {"binder": "Me-Y[Aib]EGTFISDYSIALDR[Aib]KQ[Aib]DFVNWLLAQSG-OH (not fully specified (residues 1, 18))", "note": "[Compound 170]", "Human GIPR cAMP, HEK293T EC50": 0.0004},
      {"binder": "Me-Y[Aib]EGTFISDYSIALDR[Aib]K([AEEA-AEEA-γGlu-γGlu-C15 diacid])Q[Aib]DFVNWLLAQRG-OH", "note": "[Compound 162]", "Human GIPR cAMP, HEK293T EC50": 0.0002},
      {"binder": "Me-Y[Aib]EGTFISDYSIALDR[Aib]K([AEEA-AEEA-γGlu-γGlu-C15 diacid])Q[Aib]DFVNWLLAQSG-OH", "note": "[Compound 163]", "Human GIPR cAMP, HEK293T EC50": 0.0003},
      {"binder": "Me-Y[Aib]EGTFISDYSI[Aib]LDR[Aib]AQ[Aib]KFVNWLLAQRG-OH (not fully specified (residues 1, 21))", "note": "[Compound 208]", "Human GIPR cAMP, HEK293T EC50": 0.0003},
      {"binder": "Me-Y[Aib]EGTFISDYSIAK([Gly-Gly-Gly-Gly-γGlu-C15 diacid])DR[Aib]AQ[Aib]DFVNWLLAQKG-OH", "note": "[Compound 180]", "Human GIPR cAMP, HEK293T EC50": 0.0003},
      {"binder": "B6", "Human GIPR cAMP, HEK293T EC50": 0.0049},
      {"binder": "Me-Y[Aib]EGTFISDYSIALDR[Aib]AQ[Aib]KFVNWLLAQKG-OH (not fully specified (residues 1, 21))", "note": "[Compound 214]", "Human GIPR cAMP, HEK293T EC50": 0.0003},
      {"binder": "Me-Y[Aib]EGTFISDYSIAKDR[Aib]AQ[Aib]DFVNWLLAQRG-OH (not fully specified (residues 1, 14))", "note": "[Compound 173]", "Human GIPR cAMP, HEK293T EC50": 0.0005},
      {"binder": "B1", "Human GIPR cAMP, HEK293T EC50": 0.0003},
      {"binder": "B2", "Human GIPR cAMP, HEK293T EC50": 0.0002},
      {"binder": "B3", "Human GIPR cAMP, HEK293T EC50": 0.0003},
      {"binder": "B4", "Human GIPR cAMP, HEK293T EC50": 0.0004},
      {"binder": "Me-Y[Aib]EGTFISDYSI[Aib]LDR[Aib]AQ[Aib]K([AEEA-AEEA-γGlu-γGlu-C15 diacid])FVNWLLAQKG-OH", "note": "[Compound 175]", "Human GIPR cAMP, HEK293T EC50": 0.0004},
      {"binder": "B5", "Human GIPR cAMP, HEK293T EC50": 0.0001},
      {"binder": "Me-Y[Aib]EGTFISDYSIALDR[Aib]AQ[Aib]KFVNWLLAQKG-OH (not fully specified (residues 1, 21))", "note": "[Compound 204]", "Human GIPR cAMP, HEK293T EC50": 0.0008}
    ]}
  ]
}
